The values below come from article PMC4689532.

What all share (assay): SPR; Biacore T100, 37°C, HBS-EP; biotinylated ligand captured with the Biotin CAPture Kit, reference biotinylated rat Cd4d3+4; purified his-tagged analyte injected at 20 μl/min, equilibrium fit Req = CRmax/(C+KD); lower concentrations did not reach equilibrium, KD likely slightly overestimated
In test [1] the target is P. falciparum P41, AVEXIS bait/prey form (P. falciparum).
The target of test [2] is P. vivax P41 (PVX_000995, 6-cysteine protein), entire ectodomain, AVEXIS bait/prey form (P. vivax) (UniProt A5KAP6).
Test [3] deals with P. vivax P12 (PVX_113775, 6-cysteine protein), entire ectodomain, AVEXIS bait/prey form (P. vivax) (UniProt A5K1W7).

Take “P. vivax P12 (PVX_113775), entire ectodomain, 6-His tagged, purified (from UniProt A5K1W7 24-339) (domain or fragment)”: the Kd (usually a measure of binding affinity in units of concentration) in test [1] was 31 nM; in test [2] it was 120 nM.

Consider “P. vivax P41 (PVX_000995), entire ectodomain, 6-His tagged, purified (from UniProt A5KAP6 22-384) (domain or fragment)”, for which the dissociation constant (Kd) in test [3] is 77 nM.
